Target: T1, human clone 24 (Homo sapiens, UniProt Q96LB2, E310Q/I312T/I5V)
T1 construct: expressed in transfected cells
Assay: Calcium signaling (FURA-2) in stably transfected HEK293 cells 293/pcDNA3-HML-HA24
Type: cell-based
Conditions: stably transfected HEK293 cell line 293/pcDNA3-HML-HA24, FURA-2 AM, peptides added successively
Protocol: The coding sequence of human clone 24 was transferred into a pcDNA3 vector and modified to add a haemaglutinin tag at the C-terminus of the receptor sequence. This clone, designated as pcDNA3-HML-HA24 was transfected into HEK293 cells using a modified CaCl2 method (Maniatis, Molecular Cloning: A Laboratory Manual, Cold Spring Harbor Laboratory Press (1989)). The cells were maintained in culture medium at 37° C., 5% CO2 and diluted 10 fold every 3 days.
The cells were inoculated in 90 mm tissue culture dishes (5×10^5 cells per flask) in Dulbecco's Modified Essential Medium (DMEM, Gibco BRL), supplemented with 10% fetal bovine serum (FBS), 100 U/ml penicillin, 100 μg/ml streptomycin and 0.25 μg/ml fungizone. One day after inoculation, cells were transiently transfected with 30 μg of plasmid DNA per dish. The cells were harvested 48 hours post transfection for analysis. The expression of the gene was first checked by immunoprecipitation and western blotting with an anti-haemaglutinin antibody. A protein of approximately 43 KD was detected in stably as well as transiently transfected HEK293 cells, but not in control cells.
Stably transfected HEK293 cells were obtained after approximately 21 days of selection in culture medium containing 800 μg/ml G418. Calcium signaling measurement was performed with one of these stably transfected cell line, 293/pcDNA3-HML-HA24. The cells were grown on a 24 mm round glass cover slides to 50–70% confluence. […] The calcium displacement was measured using a PTI (Photon Technology International) D104 photometer equipped with a PTI Delta RAM High speed multiwavelength illuminator, a PTI SC500 Shutter controller, a PTI LPS220 ARC lamp supply and the PTI FELIX software, v.1.2. […] The cells were exposed to 340 and 380 nm light and the 510 nm light emitted by the cells was recorded. […]

T1 sequence (Q96LB2 whole entry I5V/E310Q/I312T): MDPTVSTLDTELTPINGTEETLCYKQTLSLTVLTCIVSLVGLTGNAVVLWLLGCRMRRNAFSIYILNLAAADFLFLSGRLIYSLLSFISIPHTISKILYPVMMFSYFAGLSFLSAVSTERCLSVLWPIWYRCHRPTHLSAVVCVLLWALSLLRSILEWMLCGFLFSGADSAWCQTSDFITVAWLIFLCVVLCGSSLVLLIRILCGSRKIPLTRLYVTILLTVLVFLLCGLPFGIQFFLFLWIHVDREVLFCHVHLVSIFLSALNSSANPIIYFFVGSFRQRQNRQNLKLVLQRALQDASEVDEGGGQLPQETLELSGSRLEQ

Substance | calcium displacement response upon stimulation
angiotensin II (DRVYIHPF) [peptide added to DRR-transfected cells in calcium signaling assay] | a significant response
angiotensin III | a significant response
Angiotensin I (DRVYIHPFHL) [peptide added to DRR-transfected cells in calcium signaling assay] | no response
